The source of these data is patent US20250084161A1 (BIOSCEPTRE AUST, published 2025).

What is called Kd is the equilibrium constant for the complex coming apart.

In assay [1] the target is T1, E200 peptide.
T1 construct: Made by solid phase synthesis at Chiron Mimotopes; Which form (free, conjugated, biotinylated) was on the chip is told only for some experiments; also called peptide antigen E200; E200-biotin peptide
Description: Biacore using E200, dAb-Fc. (Surface plasmon resonance follows binding to a sensor surface in real time, without labels.)

The target in assay [2] is T2, pDisplay-ECD2 on HEK293 cells (Homo sapiens (Human), UniProt Q99572 47-306).
T2 construct: also called ECD2 as pDisplay; not shown: N-terminal HA tag of pDisplay (told for ECD1); c-Myc tag and PDGFR transmembrane anchorage of pDisplay (told for ECD1)
T2 sequence: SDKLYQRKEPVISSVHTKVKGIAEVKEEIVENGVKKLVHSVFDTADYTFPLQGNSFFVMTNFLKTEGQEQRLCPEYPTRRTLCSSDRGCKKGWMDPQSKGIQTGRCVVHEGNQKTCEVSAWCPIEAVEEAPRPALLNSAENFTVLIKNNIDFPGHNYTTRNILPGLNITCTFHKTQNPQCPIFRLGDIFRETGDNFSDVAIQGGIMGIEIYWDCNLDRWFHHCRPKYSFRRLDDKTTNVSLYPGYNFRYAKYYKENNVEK
Description: flow cytometry, live HEK293E cells expressing pDisplay-ECD2 ('HEK293E-pDisplay ED'), dAb at 5 uM, detection with anti-human IgG Fab. Background: A flow cytometer gives signals particle by particle.

Assay [3] deals with T1, E200 peptide. As to the kind of experiment: Biacore using E200 (10RU), dAb-Fc at 100 pM to 1 nM.
Assay [4] addresses T3, ECD2, P2X7 receptor (47-306), soluble (Homo sapiens (Human), UniProt Q99572 47-306).
T3 construct: also called soluble ECD2; ECD2 domain
T3 sequence: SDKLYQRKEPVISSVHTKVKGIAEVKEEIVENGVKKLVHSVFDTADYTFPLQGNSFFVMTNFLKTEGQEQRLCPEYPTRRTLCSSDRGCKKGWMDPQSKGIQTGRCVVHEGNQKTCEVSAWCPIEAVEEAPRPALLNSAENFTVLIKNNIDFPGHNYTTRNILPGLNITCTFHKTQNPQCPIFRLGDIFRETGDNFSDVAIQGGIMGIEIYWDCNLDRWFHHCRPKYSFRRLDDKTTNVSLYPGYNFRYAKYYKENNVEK
As to the kind of experiment: Biacore against ECD2 in either solution form or as a ECD-Fc construct; Fc format; ECD2 in solution or as ECD-Fc, form not told.

Assay [5] has as its target T3, ECD2, P2X7 receptor (47-306), soluble. Description: Biacore, labelled dAb domain at 5 and 2.5 nM; target taken as ECD2 from the sentence before; Alexa488-labelled dAb domain.
The target in assay [6] is T1, E200 peptide. As to the kind of experiment: Biacore, E200 peptide.
Assay [7] deals with T3, ECD2, P2X7 receptor (47-306), soluble. Description: single domain format; method not given.
Assay [8] shares this target. Description: Biacore against ECD2 in either solution form or as a ECD-Fc construct; Fc format taken from context.
For assay [9] the target is unchanged. As to the kind of experiment: Biacore against ECD2 in either solution form or as a ECD-Fc construct; Fc construct.
For assay [10] the target is unchanged. Description: Biacore, labelled dAb domain at 10 and 5 nM; target taken as ECD2 from the paragraph before; Alexa488-labelled dAb domain, different parent.
For assay [11] the target is unchanged. Description: Biacore, dAb domain without Fc; dAb domain, no Fc format.

B1: PEP2-47 Fc (Fc fusion)
chain: EVQLLESGGGLVQPGGSLRLSCAASGFTFPMKDMGWVRQAPGKGLEWVSAISGSGGSTYYADSVKGRFTISRDNSKNTLYLQMNSLRAEDTAVYYCAEPSHFDRPFDYWGQGTLVTVSS
notes: Standard format dAb-Fc with human type IgG1 Fc subtype; also called 2-47 (PEP-Fc); not shown: human IgG1 Fc
The molecule B1 gave a Kd in the assay with E200 peptide [1] of 7.5 nM.

B2: PEP2-47-1 Fc (Fc fusion)
chain: EVQLLESGGGLVQPGGSLRLSCAASGYTFPMKDMGWVRQAPGKGLEWVSAISGSGGGTYYADSVKGRFTISRDNSKNTLYLQMNSLRAEDTAVYYCAEPSHFDRPFDYRSQGTLVTVSS
notes: Standard format dAb-Fc with human type IgG1 Fc subtype; also called 2-47-1 (PEP-Fc); not shown: human IgG1 Fc
In the assay with E200 peptide [1], B2 showed a Kd of 0.11 nM.

B3: 42.2 (other)
VH single domain (dAb): EVQMLESGGGLVQPGESLRLSCAASGFTFDNVEMSWVRQAPGKGLEWVSSIGSKGEYTYYADSVKGRFTISRDNSKNTLYLQMNSPRAEDTAVYYCAQTVNVPEPAFAYWGQGTLVTVSS
notes: also called PEP2-42-2; PEP2-42-2 dAb
B3: the binding result in [2] is “binds”.

B4: PEP2-42 Fc (Fc fusion)
chain: EVQLLESGGGLVQPGGSLRLSCAASGFTFDNVEMSWVRQAPGKGLEWVSSIGSKGEDTYYADSVKGRFTISRDNSKNTLYLQMNSLRAEDTAVYYCAQTVNVPEPAFAYWGQGTLVTVSS
notes: Standard format dAb-Fc with human type IgG1 Fc subtype; also called 2-42 (PEP-Fc); not shown: human IgG1 Fc
The molecule B4 gave a dissociation constant (Kd) with E200 peptide [1] of 5.5 nM.

B5: 2.4 (other)
VH single domain (dAb): EVQLLESGGGLVQPGGSLRLTCAASGFSFRNHDMGWVRQAPGKGLEWVSAISGSGGSTYYADSVKGRFTISRDNSKNTLYLQMNSLRAEDTAVYYCAEPKPMDTEFDYRSPGTLVTVSS
notes: Read as PEP2-2-4, in line with '2' = PEP2-2 and '47.1' = PEP2-47-1; it is not PEP2-4; also called PEP2-2-4; PEP2-2-4 dAb
In the case of B5, in [2], the binding result is recorded as “binds”.

B6: PEP2-2-3 Fc (Fc fusion)
chain: EVQLLESGGGLVQPGGSLRLSCAASGFTFRNHDMGWVRQAPGKGLEWVSAISGSGGSTYYADSVKGRFTISRDNSKNTLYLQMNSLRAEDTAVYYCAEPKPMDTEFDYWSPGTLVTVSS
notes: Standard format dAb-Fc with human type IgG1 Fc subtype; also called 2-2-3 (PEP-Fc); not shown: human IgG1 Fc
B6: the Kd was 0.13 nM with E200 peptide [3] and 1.5 nM in assay [4].

B7: PEP2-247-1 Fc (Fc fusion)
chain: EVQLLESGGGLVQPGGSLRLSCAASGFTFRNHDMGWVRQAPGKGLEWVSAISGSGGGTYYADSVKGRFTISRDNSKNTLYLQMNSLRAEDTAVYYCAEPSHFDRPFDYRSQGTLVTVSS
notes: Standard format dAb-Fc with human type IgG1 Fc subtype; also called 2-247-1 (PEP-Fc); 2-2/2-47-1 CDR crossover; not shown: human IgG1 Fc
For the molecule B7, the affinity in the assay with E200 peptide [1], expressed as Kd, was 0.19 nM.

B8: PEP2-2-1-1 Fc (Fc fusion)
chain: EVQLLESGGGLVQPGGSLRLSCAASGFTFRNHDMGWVRQAPGKGLEWVSAISGSGGSTYYADSVKGRFTISRDNSKNTLYLQMNSLRAEDTAVYYCAEPKPMDTEFDYRSPGTLVTVSS
notes: Standard format dAb-Fc with human type IgG1 Fc subtype; also called 2-2-1-1 (PEP-Fc); not shown: human IgG1 Fc
B8 showed a Kd in the assay with E200 peptide [1] of 0.09 nM.

B9: PEP2-247-2 Fc (Fc fusion)
chain: EVQLLESGGGLVQPGGSLRLSCAASGFTFRNHDMGWVRQAPGKGLEWVSAISGSGGSTYYANSVKGRFTISRDNSKNTLYLQMNSLRAEDTAVYYCAEPSHFDRPFDYRSQGTLVTVSS
notes: Standard format dAb-Fc with human type IgG1 Fc subtype; also called 2-247-2 (PEP-Fc); 2-2-1/2-47-1 CDR crossover; not shown: human IgG1 Fc
In the assay with E200 peptide [1], B9 came in with a Kd of 0.45 nM.

B10: PEP2-2-2 Fc (Fc fusion)
chain: EVQLLESGGGLVQPGGSLRLSCAASGFTFRNHDMGWVRQAPGKGLEWVSAISGSGGSTYYADSVKGRFTISRDNSKNTLYLQMNSLRAEDTAVYYCAEPKPMDTEFDYRSQGTLVTVSS
notes: Standard format dAb-Fc with human type IgG1 Fc subtype; also called 2-2-2 (PEP-Fc); not shown: human IgG1 Fc
On to B10, for which the Kd with E200 peptide [1] came to 0.1 nM.

B11: PEP2-2-12Alexa488 domain (other)
VH: EVQLLESGGGLVQPGGSLRLSCAASGFTFRNHDMGWVRQAPGKGLEWVSAISGSGGSTYYANSVKGRFTISRDNSKNTLYLQMNSLRAEDTAVYYCAEPKPMDTEFDYPSPGTLVTVSS
modifications: Alexa488 label attached (site not stated)
notes: Human VH dAb domain, labelled; also called PEP2-2-12 with Alexa488 label
In [5], B11 returned an equilibrium dissociation constant (Kd) of 0.174 nM.

B12: PEP2-2-3 dAb (other)
VH: EVQLLESGGGLVQPGGSLRLSCAASGFTFRNHDMGWVRQAPGKGLEWVSAISGSGGSTYYADSVKGRFTISRDNSKNTLYLQMNSLRAEDTAVYYCAEPKPMDTEFDYWSPGTLVTVSS
notes: Human VH dAb, unformatted; also called unformatted dAb PEP2-2-3
B12 returned a dissociation constant Kd with E200 peptide [6] of 7 nM.

B13: PEP2-47 dAb (other)
VH: EVQLLESGGGLVQPGGSLRLSCAASGFTFPMKDMGWVRQAPGKGLEWVSAISGSGGSTYYADSVKGRFTISRDNSKNTLYLQMNSLRAEDTAVYYCAEPSHFDRPFDYWGQGTLVTVSS
notes: Human VH dAb, unformatted
On to B13, for which the binding result in assay [7] is recorded as “binds”.

B14: 47.1 (other)
VH single domain (dAb): EVQLLESGGGLVQPGGSLRLSCAASGYTFPMKDMGWVRQAPGKGLEWVSAISGSGGGTYYADSVKGRFTISRDNSKNTLYLQMNSLRAEDTAVYYCAEPSHFDRPFDYRSQGTLVTVSS
notes: also called PEP2-47-1; PEP2-47-1 dAb
On to B14, for which the binding result in assay [2] is on record as “binds”.

B15: PEP2-472-1 Fc (Fc fusion)
chain: EVQLLESGGGLVQPGGSLRLSCAASGYTFPMKDMGWVRQAPGKGLEWVSAISGSGGGTYYADSVKGRFTISRDNSKNTLYLQMNSLRAEDTAVYYCAEPKPMDTEFDYRSQGTLVTVSS
notes: Standard format dAb-Fc with human type IgG1 Fc subtype; also called 2-47-1/2-2-2 CDR crossover; not shown: human IgG1 Fc
Consider B15, for which the Kd in assay [8] came to 0.584 nM; in the assay with E200 peptide [1] it was 0.09 nM.

B16: PEP2-2-1 Fc (Fc fusion)
chain: EVQLLESGGGLVQPGGSLRLSCAASGFTFRNHDMGWVRQAPGKGLEWVSAISGSGGSTYYANSVKGRFTISRDNSKNTLYLQMNSLRAEDTAVYYCAEPKPMDTEFDYRSPGTLVTVSS
notes: Standard format dAb-Fc with human type IgG1 Fc subtype; also called PEP2-2-1 dAb-FC; not shown: human IgG1 Fc
As to B16, the Kd in assay [9] amounted to 0.56 nM.

B17: 2.5 (other)
VH single domain (dAb): EVQLLESGGGLVQPGGSLRLSCAASGFTFRNHDMGWVRQAPGKGLEWVSAISGSGGSTYYADSVKGRFTISRDDSKNTLYLQMNSLRAEDTAVYYCAEPKPMDTEFDYRSPGTLVTVSS
notes: Read as PEP2-2-5; it is not PEP2-5; also called PEP2-2-5; PEP2-2-5 dAb
As to B17, in assay [2], the binding result was “binds”.

B18: PEP2-472-12Alexa488 domain (other)
VH: EVQLLESGGGLVQPGGSLRLSCAASGYTFPMKDMGWVRQAPGKGLEWVSAISGSGGGTYYADSVKGRFTISRDNSKNTLYLQMNSLRAEDTAVYYCAEPKPMDTEFDYRSPGTLVTVSS
modifications: Alexa488 label attached (site not stated)
notes: Human VH dAb domain, labelled
B18: in [10], the equilibrium dissociation constant (Kd) came out at 0.156 nM.

B19: PEP2-2-12 dAb domain (other)
VH: EVQLLESGGGLVQPGGSLRLSCAASGFTFRNHDMGWVRQAPGKGLEWVSAISGSGGSTYYANSVKGRFTISRDNSKNTLYLQMNSLRAEDTAVYYCAEPKPMDTEFDYPSPGTLVTVSS
notes: Human VH dAb domain, no Fc format
As to B19, the dissociation constant Kd in assay [11] is 0.945 nM.
